Source: the MegaScale stability set (Tsuboyama et al. 2023)

B1: EHEE_rd4_0726 (parent)
chain: DIEITTNGEEDAKRVIKELQKRNLEYHIEVHGNQWVIKVR

Variants of: B1
Test: folding stability dG (cDNA display proteolysis); higher = more stable
Details: PBS, room temperature

Going from DIEIATNGEEDAKRVIKELQKRNLEYHIEVHGNQWVIKVR [T5A] to DIEIITNGEEDAKRVIKELQKRNLEYHIEVHGNQWVIKVR [T5I], the “folding stability dG” value rises from 1.84 kcal/mol to 3.17 kcal/mol.

Compared with DIEITTNREEDAKRVIKELQKRNLEYHIEVHGNQWVIKVR [G8R], DIEITTNGEEDAKRVIKELQKRNLEYHHEVHGNQWVIKVR [I28H] is lower in “folding stability dG” value: 2.33 kcal/mol for the first, -0.075 kcal/mol for the second.

Going from DIEITTNGEEDAKRVIKELQKRNLEYHWEVHGNQWVIKVR [I28W] to DIEITTNGEEDAKRVIKELQKRNLEYHQEVHGNQWVIKVR [I28Q], the “folding stability dG” value falls from 1.24 kcal/mol to 0.128 kcal/mol.

Going from DIEITTNGEEDAKRVIKELQKRNLEYHFEVHGNQWVIKVR [I28F] to DIEITTNGEEDVKRVIKELQKRNLEYHIEVHGNQWVIKVR [A12V], the “folding stability dG” value rises from 1.48 kcal/mol to 1.74 kcal/mol.

Compared with DIEITTNGEEDQKRVIKELQKRNLEYHIEVHGNQWVIKVR [A12Q], DIEITTNGEEDKKRVIKELQKRNLEYHIEVHGNQWVIKVR [A12K] is higher in “folding stability dG” value: 0.813 kcal/mol for the first, 1.06 kcal/mol for the second.

Compared with DIEITTNGEEDYKRVIKELQKRNLEYHIEVHGNQWVIKVR [A12Y], DIEITTNGEEDIKRVIKELQKRNLEYHIEVHGNQWVIKVR [A12I] is lower in “folding stability dG” value: 1.82 kcal/mol for the first, 1.49 kcal/mol for the second.

Going from DIEITTNGEEDAKRVIKELQMRNLEYHIEVHGNQWVIKVR [K21M] to DIEITTNGEEDAKRVIKELQGRNLEYHIEVHGNQWVIKVR [K21G], the “folding stability dG” value falls from 2.51 kcal/mol to 1.86 kcal/mol.

First: DIEITTNGEEDAKRVIKELQQRNLEYHIEVHGNQWVIKVR [K21Q]
Second: DIEITTNGEEDAKRVIKELQPRNLEYHIEVHGNQWVIKVR [K21P]
The “folding stability dG” value of the first is higher: 2.23 kcal/mol for the first, 0.042 kcal/mol for the second.

Going from DIEITTNGEEDAKRVIKELQFRNLEYHIEVHGNQWVIKVR [K21F] to DIEITTNGEEDAKRVIKELQERNLEYHIEVHGNQWVIKVR [K21E], the “folding stability dG” value rises from 2.25 kcal/mol to 2.44 kcal/mol.

First: DIEITTNGEEDAKRVIKELQTRNLEYHIEVHGNQWVIKVR [K21T]
Second: DIEITTNGEEDAKRVIKELQIRNLEYHIEVHGNQWVIKVR [K21I]
The “folding stability dG” value of the first is lower: 1.91 kcal/mol for the first, 2.19 kcal/mol for the second.

Going from DIEITTNGEEDAKRVIKELQYRNLEYHIEVHGNQWVIKVR [K21Y] to DIEITTNGEEDAKRVIKELQKRNLEYHIEVHGNQWVIKKR [V39K], the “folding stability dG” value falls from 2.08 kcal/mol to -0.993 kcal/mol.

Going from DIEITTNGEEDAKRVIKELQKRNLEYHIEVHGNQWVIKLR [V39L] to DIEITTNGEEDAKRVIKELQKRNLEYHIEVHGNQWVIKYR [V39Y], the “folding stability dG” value rises from 1.98 kcal/mol to 2.08 kcal/mol.

Going from DIEITTNGEEDAKRVIKEMQKRNLEYHIEVHGNQWVIKVR [L19M] to DIEITTNGEEDAKRVIKEIQKRNLEYHIEVHGNQWVIKVR [L19I], the “folding stability dG” value rises from 1.32 kcal/mol to 1.56 kcal/mol.

First: DIEITTNGEEDAKRVIKETQKRNLEYHIEVHGNQWVIKVR [L19T]
Second: DIEITTNGEEDAKRVIKEVQKRNLEYHIEVHGNQWVIKVR [L19V]
The “folding stability dG” value of the first is lower: -0.334 kcal/mol for the first, 0.98 kcal/mol for the second.

First: DIEITTNGEEDAPRVIKELQKRNLEYHIEVHGNQWVIKVR [K13P]
Second: DIEITTNGEEDACRVIKELQKRNLEYHIEVHGNQWVIKVR [K13C]
The “folding stability dG” value of the first is lower: 0.028 kcal/mol for the first, 2.59 kcal/mol for the second.

Going from DIEITTNGEEDANRVIKELQKRNLEYHIEVHGNQWVIKVR [K13N] to DIEITSNGEEDAKRVIKELQKRNLEYHIEVHGNQWVIKVR [T6S], the “folding stability dG” value falls from 2.32 kcal/mol to 1.47 kcal/mol.

First: DIEITNNGEEDAKRVIKELQKRNLEYHIEVHGNQWVIKVR [T6N]
Second: DIEITTNGEEDAKRVIKELQKRNLEYHIEVHGNQWVLKVR [I37L]
The “folding stability dG” value of the first is lower: 0.494 kcal/mol for the first, 1.21 kcal/mol for the second.

Going from DIEITTNGEEDAKRVIKSLQKRNLEYHIEVHGNQWVIKVR [E18S] to DIEITTNGEEDAKRVIKALQKRNLEYHIEVHGNQWVIKVR [E18A], the “folding stability dG” value rises from 2.04 kcal/mol to 2.43 kcal/mol.

First: DIEITTNGEEDAKRVIKILQKRNLEYHIEVHGNQWVIKVR [E18I]
Second: DIEITTNGEEDAKRVIKQLQKRNLEYHIEVHGNQWVIKVR [E18Q]
The “folding stability dG” value of the first is higher: 2.68 kcal/mol for the first, 2.19 kcal/mol for the second.

First: DIEITTRGEEDAKRVIKELQKRNLEYHIEVHGNQWVIKVR [N7R]
Second: DIEITTIGEEDAKRVIKELQKRNLEYHIEVHGNQWVIKVR [N7I]
The “folding stability dG” value of the first is lower: 2.25 kcal/mol for the first, 2.43 kcal/mol for the second.

Compared with DDEITTNGEEDAKRVIKELQKRNLEYHIEVHGNQWVIKVR [I2D], DHEITTNGEEDAKRVIKELQKRNLEYHIEVHGNQWVIKVR [I2H] is higher in “folding stability dG” value: 1.41 kcal/mol for the first, 2.06 kcal/mol for the second.

Compared with DFEITTNGEEDAKRVIKELQKRNLEYHIEVHGNQWVIKVR [I2F], DGEITTNGEEDAKRVIKELQKRNLEYHIEVHGNQWVIKVR [I2G] is lower in “folding stability dG” value: 3.22 kcal/mol for the first, 1.4 kcal/mol for the second.

First: DEEITTNGEEDAKRVIKELQKRNLEYHIEVHGNQWVIKVR [I2E]
Second: DIEITTNGEEDAKRVIKELQKRNLEYHIEVHINQWVIKVR [G32I]
The “folding stability dG” value of the first is higher: 1.54 kcal/mol for the first, 1.21 kcal/mol for the second.

Going from DIEITTNGEEDAKRVIKELQKRNLEYHIEVHYNQWVIKVR [G32Y] to DIEITTNGEEDAKRVIKELQKRNLEYHIEVHENQWVIKVR [G32E], the “folding stability dG” value rises from 1.19 kcal/mol to 1.9 kcal/mol.

Going from DIEITTNGEEDAKRVIKELQKRNLEYHIEVHGNQTVIKVR [W35T] to DIEITTNGEWDAKRVIKELQKRNLEYHIEVHGNQWVIKVR [E10W], the “folding stability dG” value rises from 1.24 kcal/mol to 2.21 kcal/mol.

Compared with DIEITTNGEQDAKRVIKELQKRNLEYHIEVHGNQWVIKVR [E10Q], DIEITTNGEPDAKRVIKELQKRNLEYHIEVHGNQWVIKVR [E10P] is lower in “folding stability dG” value: 2.16 kcal/mol for the first, 1.52 kcal/mol for the second.

Compared with DIEITTNGEHDAKRVIKELQKRNLEYHIEVHGNQWVIKVR [E10H], DIEITTNGEEDAKRVIKELQKRNLIYHIEVHGNQWVIKVR [E25I] is higher in “folding stability dG” value: 2.02 kcal/mol for the first, 2.66 kcal/mol for the second.

Compared with DIEITTNGEEDAKRVIKELQKRNLAYHIEVHGNQWVIKVR [E25A], DIEITTNGEEDAKRVIKELQKRNLGYHIEVHGNQWVIKVR [E25G] is lower in “folding stability dG” value: 2.53 kcal/mol for the first, 2.04 kcal/mol for the second.

Compared with DIEITTNGEEDAKRVIKELQKRNLEYHIEVHGRQWVIKVR [N33R], DIEITTNGEEDAKRVIKELQKRNLEYHIEVHGFQWVIKVR [N33F] is higher in “folding stability dG” value: 1.68 kcal/mol for the first, 2.06 kcal/mol for the second.

First: DIEITTNGEEDAKRVIKELQKRNLEYHIEVHGIQWVIKVR [N33I]
Second: DIEITTNGEEDAKRVIKELQKRNLEYHIEVHGAQWVIKVR [N33A]
The “folding stability dG” value of the first is lower: 1.66 kcal/mol for the first, 2 kcal/mol for the second.

Going from DIEITTNGEEDAKRVIKELQKRNLEYHIEVHGEQWVIKVR [N33E] to DIEITTNGEEQAKRVIKELQKRNLEYHIEVHGNQWVIKVR [D11Q], the “folding stability dG” value rises from 2.16 kcal/mol to 2.63 kcal/mol.
